{"source": "patent US20220323583A1", "about": "(MacroGenics, published 2022)", "binders": {"B1": {"name": "DART-A, sequence-optimized CD123×CD3 bispecific diabody (bispecific antibody)", "chain 1": "QAVVTQEPSLTVSPGGTVTLTCRSSTGAVTTSNYANWVQQKPGQAPRGLIGGTNKRAPWTPARFSGSLLGGKAALTITGAQAEDEADYYCALWYSNLWVFGGGTKLTVLGGGGSGGGGEVQLVQSGAELKKPGASVKVSCKASGYTFTDYYMKWVRQAPGQGLEWIGDIIPSNGATFYNQKFKGRVTITVDKSTSTAYMELSSLRSEDTAVYYCARSHLLRASWFAYWGQGTLVTVSSGGCGGGEVAALEKEVAALEKEVAALEKEVAALEK", "chain 2": "DFVMTQSPDSLAVSLGERVTMSCKSSQSLLNSGNQKNYLTWYQQKPGQPPKLLIYWASTRESGVPDRFSGSGSGTDFTLTISSLQAEDVAVYYCQNDYSYPYTFGQGTKLEIKGGGSGGGGEVQLVESGGGLVQPGGSLRLSCAASGFTFSTYAMNWVRQAPGKGLEWVGRIRSKYNNYATYYADSVKDRFTISRDDSKNSLYLQMNSLKTEDTAVYYCVRHGNFGNSYVSWFAYWGQGTLVTVSSGGCGGGKVAALKEKVAALKEKVAALKEKVAALKE", "notes": "Two chains covalently bonded by a disulfide bond, no Fc; a second species lacks the C-terminal lysine; also called CD123×CD3 diabody; CD123 × CD3 Bi-Specific Diabodies"}}, "key": {"[1]": {"target": "T1, Human CD123-His (human, UniProt P26951 19-305, limits assumed)", "T1 construct": "Only the label 'Human CD123-His' is printed; also called interleukin 3 receptor alpha; IL-3Ra; not shown: His tag", "T1 sequence (looked up)": "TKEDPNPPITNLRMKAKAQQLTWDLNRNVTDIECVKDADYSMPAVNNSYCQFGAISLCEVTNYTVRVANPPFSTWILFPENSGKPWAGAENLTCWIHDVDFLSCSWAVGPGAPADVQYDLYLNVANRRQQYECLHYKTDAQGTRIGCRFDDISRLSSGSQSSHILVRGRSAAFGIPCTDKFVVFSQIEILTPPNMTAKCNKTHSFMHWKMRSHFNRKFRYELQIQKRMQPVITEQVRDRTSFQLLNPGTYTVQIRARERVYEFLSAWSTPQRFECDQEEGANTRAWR", "experiment": "kinetic binding measurement, method not stated"}, "[2]": {"target": "T2, Cynomolgus CD123-His (cynomolgus monkey)", "T2 construct": "Only the label 'Cynomolgus CD123-His' is printed; also called cynomolgus monkey CD123", "experiment": "kinetic binding measurement, method not stated"}, "[3]": {"target": "human CD123 on target cell lines (Kasumi-3, Molm13, THP-1, TF-1, RS4-11) (human, UniProt P26951 19-378)", "experiment": "cell-based or functional assay"}}}
{"binder": "B1", "values": [{"measurement": "Kd", "setting": "[1]", "value": 0.13, "unit": "nM"}, {"measurement": "koff", "setting": "[1]", "value": 0.00019, "unit": "s⁻¹"}, {"measurement": "kon", "setting": "[1]", "value": "1.6e+06", "unit": "M⁻¹ s⁻¹"}, {"measurement": "Kd", "setting": "[2]", "value": 0.27, "unit": "nM"}, {"measurement": "koff", "setting": "[2]", "value": 0.0004, "unit": "s⁻¹"}, {"measurement": "kon", "setting": "[2]", "value": "1.5e+06", "unit": "M⁻¹ s⁻¹"}, {"measurement": "EC50 of redirected killing, E:T = 10:1, Kasumi-3 target cells", "setting": "[3]", "value": 0.01, "unit": "ng/mL"}, {"measurement": "EC50 of redirected killing, E:T = 10:1, Molm13 target cells", "setting": "[3]", "value": 0.18, "unit": "ng/mL"}, {"measurement": "EC50 of redirected killing, E:T = 10:1, RS4-11 target cells", "setting": "[3]", "value": 0.5, "unit": "ng/mL"}, {"measurement": "EC50 of redirected killing, E:T = 10:1, TF-1 target cells", "setting": "[3]", "value": 0.46, "unit": "ng/mL"}, {"measurement": "EC50 of redirected killing, E:T = 10:1, THP-1 target cells", "setting": "[3]", "value": 0.24, "unit": "ng/mL"}]}
